According to the RNAGym collection of RNA variant scans (doi:10.7554/elife.80360):

B1: Hairpin Ribozyme (parent)
chain: GUCCUCUUUCACGUGCGCGUGAAAGAGAGAAGUGAACCAGAGAAACACACGUUGUGGUAUAUUACCUGGUA

Variants of: B1
Assay: self-cleavage, relative activity (ratio to wild type); higher = more cleavage; co-transcriptional

Variant	self-cleavage
U20G A28U	0.643
U20C C65U	0.284
U20C C65A	1
U20G A61G	0.257
U20G A61C	0.11
U20A U67A	0.217
U20A A71G	0.89
U20C G29C	0.143
U20A C48G	0.219
U20A C48A	0.23
U20G C37G	0.395
U20G C37U	0.594
U20A A36G	0.858
U20A U58G	0.762
U20A U58A	0.709
U20C A45G	0.165
G19U U52A	0.881
G19U U52C	0.818
G19U G57U	0.207
U20A A30G	0.184
U20G U52G	0.772
G19U U53A	0.971
G19U U53C	0.952
G19U U53G	0.772

Variant	self-cleavage
U20C G68C	0.219
U20C G68U	0.257
G19U U58C	0.994
G19U U58G	0.672
U20A U60A	0.607
U20C A64U	0.152
G19U U70A	0.773
G19U U70C	0.722
U20A A49G	0.437
U20G G57A	0.195
U20A A23U	0.785
U20A A23G	0.783
U20G G27C	0.165
U20G A47U	0.0722
U20A U63C	0.147
U20C C38A	0.152
U20C A24U	0.503
U20C A43U	0.125
G21A A24U	0.513
U20C G69C	0.239
U20C G69A	0.435
U20A A41C	1.28
U20A A41U	1.16
U20A G69U	0.252

Variant	self-cleavage
U20A G69C	0.268
G19U U20G	0.707
U20C A36G	1
U20G C38A	0.184
U20G C38U	0.542
U20C G32C	0.0574
U20C A23G	1
U20A A61G	0.11
U20A A61U	0.238
U20G U67C	0.186
U20G U67A	0.241
G19U G68A	0.286
U20G A39C	0.461
G19U U63C	0.164
U20C G40U	0.19
U20C G40A	0.314
U20G G51U	0.916
U20G G51A	0.909
U20G G21U	0.754
U20G C48A	0.203
G19U U33A	0.237
G19U U33G	0.117
G19U U33C	0.202
U20G C50G	0.225

Variant	self-cleavage
U20G U33A	0.158
U20G U33G	0.11
G19U G56U	0.179
U20C A22U	0.602
U20A A59U	0.144
U20A G42C	0.306
U20A G54U	0.547
U20A G54C	0.362
U20G G68U	0.297
G21A A28C	0.472
U20A C46U	0.183
U20A A31U	0.148
G19U U55A	0.287
G19U U55G	0.313
U20C A28G	1.17
U20C A28U	0.393
U20C A28C	0.374
U20C U67C	0.2
U20A A64U	0.135
U20G A44U	0.0389
U20C C50G	0.262
U20C C50U	0.476
U20G G34C	1.14
U20G G34A	1.19

Variant	self-cleavage
U20A C37A	0.218
U20C A71C	1.28
U20C A71U	0.79
U20A G21C	0.691
U20G G54A	0.417
U20G G54U	0.595
U20C G21U	0.652
U20C G21A	0.686
U20G A64G	0.511
U20C U60C	0.724
U20C U60A	1.15
U20C C46G	0.117
U20G A30U	0.137
U20G A30G	0.148
U20C A39U	0.315
U20C A39G	0.311
U20C U53A	0.861
U20C U53G	0.708
U20C A35G	0.71
U20G G25C	0.643
U20G U58C	0.826
U20G A59C	0.313
U20G A24U	0.731
U20A G40A	0.242

Variant	self-cleavage
U20C G42C	0.313
U20G A22C	0.816
U20C C66G	0.152
U20A A47C	0.293
U20A A44U	0.177
U20A A44G	0.112
U20G A45G	0.128
U20G G40C	0.188
U20G G29C	0.18
U20G G29A	0.0828
U20G C66G	0.219
U20G C66A	0.0821
U20C U55C	0.159
U20C U55G	0.426
U20G U62C	0.188
U20G G32U	0.162
U20G G32C	0.105
U20G A49U	0.148
U20G A31U	0.0664
U20G A31C	0.164
U20C A31G	0.469
U20C A31C	0.0231
U20C U63C	0.184
U20A G27U	0.203

Variant	self-cleavage
U20A C38A	0.168
U20C U62A	0.202
U20C U62G	0.116
U20C A26G	1.06
U20A A24C	0.81
U20A U70C	0.663
U20G G42U	0.245
U20G G42C	0.206
U20A A39C	0.403
U20A A39G	0.302
U20A U62G	0.195
U20A U62C	0.446
G21A A26G	0.658
G21A A26U	0.525
U20C G56U	0.215
U20C G56C	0.216
U20A G29C	0.203
U20A G29U	0.165
U20C A49C	0.172
U20A C65G	0.182
U20A C65A	0.857
U20C G54C	0.373
U20C A30C	0.217
